Test results from PMC9500956, “In Vitro Characterization of the Physical Interactions between the Long Noncoding RNA TERRA and the Telomeric Proteins TRF1 and TRF2”.

Legend:
GST-A1-50B (human) = GST-A1-50B (human) (UniProt P54274+Q15554); test: EMSA; settings: RNA EMSA: 50 mM HEPES pH 8, 1 mM DTT, 100 mM NaCl, 0.01% BSA, 2% glycerol, 50 ng/uL E. coli tRNA, 0.25 nM RNA, 20 min on ice then 10 min 25 C; dsDNA EMSA: same …
GST-AP2EAB (human) = GST-AP2EAB (human) (UniProt P54274+Q15554); test: EMSA; settings: RNA EMSA: 50 mM HEPES pH 8, 1 mM DTT, 100 mM NaCl, 0.01% BSA, 2% glycerol, 50 ng/uL E. coli tRNA, 0.25 nM RNA, 20 min on ice then 10 min 25 C; dsDNA EMSA: same …
GST-TRF1ΔA = GST-TRF1ΔA (human, UniProt P54274 67-439, del1-66); test: EMSA; E. coli tRNA; RNA EMSA: 50 mM HEPES pH 8, 1 mM DTT, 100 mM NaCl, 0.01% BSA, 2% glycerol, 50 ng/uL E. coli tRNA, 0.25 nM RNA, 20 min on ice then 10 min 25 C; dsDNA EMSA: same; settings: protein: recombinant, tags: N-terminal GST, chain copies: 2, label: 5'-32P
GST-TRF2ΔB = GST-TRF2ΔB (human, UniProt Q15554 87-542, del43-86); test: as above; settings: protein: recombinant, tags: N-terminal GST, chain copies: 2, label: 5'-32P
GST-B R13-30A = biological target: T1, GST-B R13-30A (human, UniProt Q15554 43-86, R55A;R59A;R60A;R63A;R67A;R69A;R70A;R72A); test: as above; settings: protein: recombinant; tags: N-terminal GST; label: 5'-32P; G4-forming
T1 chain: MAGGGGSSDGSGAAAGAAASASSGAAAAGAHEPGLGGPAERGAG

Sequence of GST-TRF1ΔA (P54274 67-439, stated change not applied): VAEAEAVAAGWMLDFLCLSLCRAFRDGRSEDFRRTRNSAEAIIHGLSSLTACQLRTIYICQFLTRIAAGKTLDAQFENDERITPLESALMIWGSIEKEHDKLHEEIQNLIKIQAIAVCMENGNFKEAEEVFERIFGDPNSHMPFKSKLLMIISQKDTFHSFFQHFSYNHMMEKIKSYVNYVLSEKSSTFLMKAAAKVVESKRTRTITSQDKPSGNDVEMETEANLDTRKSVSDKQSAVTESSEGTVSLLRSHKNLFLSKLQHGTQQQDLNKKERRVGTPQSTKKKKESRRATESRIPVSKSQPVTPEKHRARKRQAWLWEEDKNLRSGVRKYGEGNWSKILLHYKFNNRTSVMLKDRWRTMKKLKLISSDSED
Sequence of GST-TRF2ΔB (Q15554 87-542, stated change not applied): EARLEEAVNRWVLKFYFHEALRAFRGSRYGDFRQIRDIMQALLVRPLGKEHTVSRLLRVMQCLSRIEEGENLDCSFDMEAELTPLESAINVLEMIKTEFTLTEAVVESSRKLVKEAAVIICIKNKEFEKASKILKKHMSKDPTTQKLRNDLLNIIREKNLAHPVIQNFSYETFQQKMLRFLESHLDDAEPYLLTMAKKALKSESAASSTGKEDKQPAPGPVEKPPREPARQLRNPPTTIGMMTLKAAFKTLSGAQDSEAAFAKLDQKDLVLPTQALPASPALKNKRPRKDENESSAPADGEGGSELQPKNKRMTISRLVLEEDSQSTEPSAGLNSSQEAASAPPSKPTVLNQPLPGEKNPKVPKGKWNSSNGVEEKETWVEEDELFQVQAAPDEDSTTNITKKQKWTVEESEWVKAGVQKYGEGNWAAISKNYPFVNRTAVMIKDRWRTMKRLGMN
Sequence of GST-AP2EAB (human) (P54274 whole entry, chain 1 of 2): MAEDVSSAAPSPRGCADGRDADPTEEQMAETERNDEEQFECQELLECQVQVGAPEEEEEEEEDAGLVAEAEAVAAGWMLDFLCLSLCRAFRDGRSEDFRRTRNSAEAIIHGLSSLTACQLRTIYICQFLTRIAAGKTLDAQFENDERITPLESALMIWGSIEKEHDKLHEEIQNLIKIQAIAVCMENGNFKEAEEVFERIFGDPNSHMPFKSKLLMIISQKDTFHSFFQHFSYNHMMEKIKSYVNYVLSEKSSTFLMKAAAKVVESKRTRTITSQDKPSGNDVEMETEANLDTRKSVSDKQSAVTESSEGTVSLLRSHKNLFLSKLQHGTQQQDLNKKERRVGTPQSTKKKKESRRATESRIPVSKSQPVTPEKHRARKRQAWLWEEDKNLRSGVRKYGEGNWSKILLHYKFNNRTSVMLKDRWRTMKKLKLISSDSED
Sequence of GST-AP2EAB (human) (Q15554 whole entry, chain 2 of 2): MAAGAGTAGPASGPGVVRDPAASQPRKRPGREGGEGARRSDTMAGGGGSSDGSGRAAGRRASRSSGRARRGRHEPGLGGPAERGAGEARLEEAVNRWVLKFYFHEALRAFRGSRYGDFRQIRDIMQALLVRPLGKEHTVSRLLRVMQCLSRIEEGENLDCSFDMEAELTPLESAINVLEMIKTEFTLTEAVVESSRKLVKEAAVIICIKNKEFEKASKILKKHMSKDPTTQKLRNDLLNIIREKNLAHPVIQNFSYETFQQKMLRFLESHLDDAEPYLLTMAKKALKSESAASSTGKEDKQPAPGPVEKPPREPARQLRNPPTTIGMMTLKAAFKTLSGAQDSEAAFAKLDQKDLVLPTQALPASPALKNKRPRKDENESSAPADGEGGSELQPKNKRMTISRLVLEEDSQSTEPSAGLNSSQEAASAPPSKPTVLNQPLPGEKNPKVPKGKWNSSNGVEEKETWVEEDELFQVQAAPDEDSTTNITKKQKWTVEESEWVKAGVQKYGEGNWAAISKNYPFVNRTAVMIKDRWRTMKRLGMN
Sequence of GST-A1-50B (human) (P54274 whole entry, chain 1 of 2): as the sequence (P54274 whole entry, chain 1 of 2) above
Sequence of GST-A1-50B (human) (Q15554 whole entry, chain 2 of 2): as the sequence (Q15554 whole entry, chain 2 of 2) above

Molecule: UUAGGGUUAGGGUUAGGGUUAGGGUUAGGGUUAGGGUUAGGGUUAGGGUUAGGGUUAGGGUUAGGGUUAGGG [TERRA (UUAGGG)12]
- binding signal (% of B domain alone) (GST-A1-50B (human)): 60
- binding signal (% binding regained at 320 nM) (GST-AP2EAB (human)): 80

Molecule: AAAGGGAAAGGGAAAGGGAAAGGGAAAGGG (structured_RNA) [MUT4 (AAAGGG)5]
- binding result (GST-TRF1ΔA; G4-forming): binds
- binding result (GST-TRF2ΔB; G4-forming): binds

Molecule: AUAGGGAUAGGGAUAGGGAUAGGGAUAGGG (structured_RNA) [MUT3 (AUAGGG)5]
- binding result (GST-TRF1ΔA; G4-forming): binds
- binding result (GST-TRF2ΔB; G4-forming): binds

Molecule: UUACCGUUACCGUUACCGUUACCGUUACCG (ssRNA) [MUT2 (UUACCG)5]
- binding result (GST-TRF1ΔA; not G4-forming): no binding
- binding result (GST-TRF2ΔB; not G4-forming): no binding

Molecule: UUACGGUUACGGUUACGGUUACGGUUACGG (ssRNA) [MUT1 (UUACGG)5]
- binding result (GST-TRF1ΔA; not G4-forming): no binding
- binding result (GST-TRF2ΔB; not G4-forming): no binding

Molecule: UUAGGGUUAGGGUUAGGGUUAGGGUUAGGG (structured_RNA) [TERRA (UUAGGG)5]
- binding result (GST-TRF1ΔA; G4-forming): binds
- binding result (GST-TRF2ΔB; G4-forming): binds
- binding result (GST-B R13-30A): no binding
